Laboratory results as given in patent US20220249563A1 (LEGEND BIOTECH IRELAND, published 2022).

T1: extracellular domain of human DLL3 protein (aa27-466) having an N-terminal FLAG tag (AdipoGen, AG-40B-0151) (human, UniProt Q9NYJ7 27-466)
T1 construct: range 27-466; also called DLL3 ECD protein
T1 sequence (looked up): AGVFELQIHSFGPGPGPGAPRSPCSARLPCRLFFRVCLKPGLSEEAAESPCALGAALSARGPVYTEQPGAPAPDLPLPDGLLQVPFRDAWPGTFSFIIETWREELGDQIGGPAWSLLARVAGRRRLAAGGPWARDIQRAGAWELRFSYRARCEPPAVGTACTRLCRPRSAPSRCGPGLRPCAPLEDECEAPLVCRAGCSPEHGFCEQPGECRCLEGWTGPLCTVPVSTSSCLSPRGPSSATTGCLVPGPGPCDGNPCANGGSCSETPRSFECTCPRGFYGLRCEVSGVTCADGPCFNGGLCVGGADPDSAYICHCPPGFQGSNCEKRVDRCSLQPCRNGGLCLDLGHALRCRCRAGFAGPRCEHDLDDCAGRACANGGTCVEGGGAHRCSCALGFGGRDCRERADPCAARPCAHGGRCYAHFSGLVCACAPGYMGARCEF

B1: AS63937 (VHH)
VHH: QVKLVESGGGSVQAGGSLRLSCAASGSTISSRPMAWFRQAPGKEREGVACIHTGLGRTYYADSVKGRFTISQDNAKNTVYLQVNSLKPEDTAMYYCAADSRRPCMVAAGYTYWGQGTQVTVSS
notes: camel sdAb; crude E. coli supernatant
B2: AS75387 (VHH)
VHH: QVHLVESGGGSVQAGGSLRLSCAASGYPYSSPCMAWFRQAPGKEREGVLVAYTGGDIQYLTDSVKGRFTISRDNAKNTVYLQMNSLKPEDTAMYYCAADLRLPRAGGCAYSYWGQGTQVTVSS
notes: as for B1
B3: AS68280 (VHH)
VHH: QVQLVESGGGSVHPGGSLRLSCAASGSTYSSNYLGWFRQAPGKGRDWVAAISTGDGATAYADSVKGRFTISQDNAKNTVYLQMNSLKLEDSAMYYCAAARGRFIDWTKATQYDYWGQGTQVTVSS
notes: as for B1
B4: AS63965 (VHH)
VHH: QVQLVESGGGSVQAGGSLRLSCVASGYSSGSCRMGWYRQAPGKERELVSKVISDGTTVYADSVKGRFTLSQGNAKNTVYLQMSSLLPEDTAMYYCNAWCREYPGGILNNGWGQGTQVTVSS
notes: as for B1
B5: AS75376 (VHH)
VHH: QVQLKESGGGSVQAGGSLRLSCAASGYTYSSHSMGWFRQAPGKEREGVAVIYTGDGSTYYADSVKGRFTISQDNAKNTVYLQMNSLKPEDTAMYYCAADPNPDYMLPFRPSRRSWWGQGTQVTVSS
notes: as for B1
B6: AS63956 (VHH)
VHH: QVHLVESGGGLVQAGGSLRLSCAASGFTYSNCCMRWYRQAPGKARELVSLINSSGGTYYADSVRGRFTISKDNAKNTLYLQMNSLKPEDTAMYYCAAYQAKYCSGPCAPPTDWGQGTQVTVSS
notes: as for B1
B7: AS64160 (VHH)
VHH: EVQLVESGGGSVQAGGSLRLSCAASVYTSSSYCMGWFRQAPGKEREGVAAMCFGGLVTHYADSVKGRFTISQDNAKNTVYLQMNSLKPEDTAMYYCAADFGRDKNYLRPLLPHAYNYWGQGTQVTVSS
notes: as for B1
B8: AS63993 (VHH)
VHH: QVKLVESGGGLVQAGGSLRLSCTVSGFTFDDLVMAWFRQAPGKERQLVSLVATAGNSVYADSVKGRFTLSRDNAHSTAYLQMNGLKPEDTAMYYCAARTDSEHAFKFWGQGTQVTVSS
notes: as for B1
B9: AS64071 (VHH)
VHH: QVHLMESGGGSVQAGGSLRLSCVASGNTYRLNSMGWFRQAPGKEREGVAFIVMIRGTTYYGASVKGRFTISQDNAQTTVYLQMSSLKPEDTAMYYCAASTKDQFYVFNPIGYDSWGQGTQVTVSS
notes: as for B1
B10: AS64395 (VHH)
VHH: QVRLVESGGGSVQAGGSLRLSCAASGSTYSTNFMGWFRQAPGKEREGVATLVTWAERTAYADSVKGRFTISQDRAKNTVYLQMNGLKPEDTAMYYCAAAASTAVRLLDPGDFAYWGQGTQVTVSS
notes: as for B1
B11: AS64634 (VHH)
VHH: QVRLVESGGGSVQAGGSLRLSCAASGYSFRGDFMCMGWFRQTPGKGREGVAVFYPGGGSTNYADSAKGRFTISQDNAKNTMYLQMNTLKPEDTAMYYCAARRWVSGTCYWDSDFHYWGQGTQVTVSS
notes: as for B1
B12: AS68355 (VHH)
VHH: QMQLVESGGDSVQAGGSLRLSCAASGYTYSGVCMGWFRQAPGKEREGVAAIDSDGSTSYADSVKGRFTISKDNAKNTLYLQMNSLKPEDTAMYYCAAAIVGGFNAYCSGGYVLDFGAWGQGTQVTVSS
notes: as for B1
B13: AS64228 (VHH)
VHH: QVQLKESGGGSIQAGGSLRLSCAASGVSYNRCSMGWYRQAPGKGRELVSRIQPGGNTYYADSVKGRFTVSQDNAKNTVSLQMNSLKPEDTAMYYCNALCWRENVNYWGQGTQVTVSS
notes: as for B1
B14: AS64597 (VHH)
VHH: QVHLVESGGGSVQAGGSLRLSCAASGYTYRVNFMGWFRQTPGKEREGVATIDSGVGTTYYADSVKGRFTISHNNAKNTIYLQMNSLKPEDTAMYYCAAGGPPTDGDRWYPLRPPGYNYWGQGTQVTVSS
notes: as for B1
B15: AS64142 (VHH)
VHH: QVHLMESGGGLVQTGGSLRLSCTASGFTFDRNAMRWYRQAPGKEREGVSCIDWTGANIAYADSVKGRFTISRDNAKNTLYLQMNSLKPEDTGMYYCAADTTSGYCSGFWSTSRYSWGQGTQVTVSS
notes: as for B1
B16: AS64057 (VHH)
VHH: QVQLEESGGGLVQTGGSLRLSCTASGFTFDRNAMRWYRQAPGKEREGVSCISWTGANIAYADSVKGRFTISRDNAKNTLYLQMNSLKPEDTGMYYCAADTTSGSCSGFWSTSRYYWGQGTQVTVSS
notes: as for B1
B17: AS64443 (VHH)
VHH: QVHLVESGGGSVQAGGSLRLSCAASGYTDSSVYIGWFRQAPGKEREEVAIIYTGGESTHYRSSVKGRFTVSQDNAKNTLYLQMNSLKPEDTAMYYCAARFPAVTYWGQGTQVTVSS
notes: as for B1
B18: AS69500 (VHH)
VHH: QVRLVESGGGSVQAGGSLRLSCAADRYTYSSACMGWFRQAPGKEREGVASIFTGTGGSTYYADSVKGRFTISQDNAKNTVYLQMNSLKPEDTAIYYCAARAFQVGYCYLRTDVYNYWGQGTQVTVSS
notes: as for B1
B19: AS64060 (VHH)
VHH: QVKLVESGGGSVQAGGSLRLSCAASGSTYCTYRMSWFRQAPGKEREFVAVIDSGGSTSYADSVKGRFTISRDNAKNTVYLQMNSLKPEDTAMYYCKTDPTIGCPQTYRYNYWGQGTQVTVSS
notes: as for B1
B20: AS69527 (VHH)
VHH: EVQLAESGGGSVQAGGSLRLSCVASRYTFSSTCMAWFRQAPGKEREEVAAIYTDDGSTWYADSVKGRFTISRDNAKNTVYLQMNSLKPEDTAMYYCAARRWACPRVGSWHEFAYWGQGTQVTVSS
notes: as for B1
B21: AS63932 (VHH)
VHH: QVQLEESGGGSVQAGGSLRLSCVASGYTYGSTFMGWFRQNPGKEREGVAVIYTGGGSTWYASSVKGRFTISQDNAKNTVYLQMNSLKPEDTAMYYCAARYGSGNVNYWGQGTQVTVSS
notes: as for B1
B22: AS64300 (VHH)
VHH: QVHLVESGGGSVQTGGSLRLSCAVSGDIYNLMSMAWFRRAPGKEREGVAYINTIIGNTYYTDSVKGRFTISRDNSKNTLYLQMNNLKPEDTAMYYCAAFNYGGAWYEERSYKYWGQGTQVTVSS
notes: as for B1
B23: AS64006 (VHH)
VHH: QVHLVESGGGSVQAGGSLRLSCEVSGYTGDTTYIGWFRQAPGKEREGVALIYTSGTSEYYADSVKGRFIISRDNAKNTVYLQMNSLKPEDTAMYYCGARSRTMMYWGQGTQVTVSS
notes: as for B1
B24: AS76169 (VHH)
VHH: QVHLMESGGGSVQAGGSLRLSCAASGYIYSSFCMGWFRQAPGKEREVVAYIRDNIMTSYTDSVKGRFTISKDNAKRTLYLQMNGLKPEDTGMYYCAVDRGGYANSCAVAARYDYWGRGTQVTVSS
notes: as for B1
B25: AS64137 (VHH)
VHH: QVRLVESGGGSVQAGGSLRLSCAASGSTYSTNFMGWFRQAPGKEREGVATLVTWVERTAYADSVKGRFTISQDRAKNTVYLQMNSLKPEDTAMYYCAAAAASTDVRLLDPGDFAYWGQGTQVTVSS
notes: as for B1
B26: AS75695 (VHH)
VHH: QVRLVESGGGSVQAGGSLRLSCVASGYTVSAYCMGWFRQVLGKGRERIAFIDAGGATIYADPVKGRFTISKDNAKNTLYLQMNSLKPEDTAMYYCVADRRGRVRRCEYNAWGQGTQVTVSS
notes: as for B1
B27: AS64130 (VHH)
VHH: EVQLAESGGGSVQAGGSLRLSCAASGYTYRSNFMGWFRQAPAKEREGVATIDSRGTITYYADSVKGRFTISQDNEKNTVYLQMNSLKPEDTAMYYCAAGGPRTNDDRWYPLRPPGYNYWGQGTQVTVSS
notes: as for B1
B28: AS63987 (VHH)
VHH: QVRLVESGGGSVQAGGSLRLSCEATGYRNCMAWFRQAPGKEREGVAVIYTPSGITDYASSVKGRFTISQNNARNTQYLQMNSLKPEDTAMYYCAADRPFVCNIANMRRSSNWGRGTQVTVSS
notes: as for B1

What follows are binders tested against T1, extracellular domain of human DLL3 … (assay: ELISA (protein), FACS (cells)).

Binding result, binds:
B1
B2
B3
B4
B5
B6
B7
B8
B9
B10
B11
B12
B13
B14
B15
B16
B17
B18
B19
B20
B21
B22
B23
B24
B25
B26
B27
B28
